Test results published in US20240076370A1 (Memorial Sloan Kettering, published 2024).

B1: ET150-158 scFv (scFv)
scFv: SSELTQDPAVSVALGQTVRITCQGDSLRSYYASWYQQKPGQAPVLVIYGKNNRPSGIPDRFSGSSSGNTASLTITGAQAEDEADYYCNSRDSSGNPPVVFGGGTKLTVLGSRGGGGSGGGGSGGGGSLEMAQVQLVESGGGLVHPGGSLRLSCAASGFTFRSHSMNWVRQAPGKGLEWVSSISSDSTYTYYADSVKGRFTISRDNAKNSLYLQMNSLRAEDTAVYYCARSGGQWKYYDYWGQGTLVTVSS
notes: also called ET150-8 scFv
B2: ET150-168 scFv (scFv)
scFv: QSVVTQPPSMSAAPGQQVTISCSGGNSNIERNYVSWYLQLPGTAPKLVIFDNDRRPSGIPDRFSGSKSGTSATLGITGLQTGDEADYYCGTWDSSLRGWVFGGGTKLTVLGSRGGGGSGGGGSGGGGSLEMAEVQLVESGGGLIQPGGSLRLSCAASGFTFSNYAMNWVRQAPGKGLEWVSTINGRGSSTIYADSVKGRFTISRDNSKNTLYLQMNSLRAEDTATYYCARYISRGLGDSWGQGTLVTV
notes: also called ET150-18 scFv
B3: ET150-151 scFv (scFv)
scFv: QSVVTQPASVSGSPGQSITISCTGTSSDVGGYNYVSWYQQHPGKAPKLMIYDVSKRPSGVSNRFSGSKSGNTASLTISGLQAEDEADYYCSSYTSSSTLVFGGGTKLTVLGSRGGGGSGGGGSGGGGSLEMAEVQLVESGGAFVQPGGSLRLSCAASGFTFSSYAMTWVRQAPGKGLEWVSTISGRGRSTFYADSVKGRFTISRDNSKNTLYLQMNSLRAEDTAVYYCARYYHAGAFDLWGQGTLVTVSS
notes: also called ET150-1 scFv
B4: ET150-152 scFv (scFv)
scFv: QSVLTQPASVSGSPGQSLTISCTGTSNDVGAYKYVSWYQQYPGKAPKLILYDVFKRPSGVSNRFSGSKSDNTASLTISGLQAEDEADYYCFSLTSSNTYVFGTGTKVTVLGSRGGGGSGGGGSGGGGSLEMAQMQLVQSGAEVKKPGASVKVSCKASGYTFNRYAITWVRQAPGQGLEWMGWISAYNGNSHYAQKLQGRVTMTTDTSTGTAYMELRRLRSDDTAVYYCARMAYDSWGQGTLVTVSS
notes: also called ET150-2 scFv
B5: ET150-155 scFv (scFv)
scFv: QSVLTQPPSASGTPGQRVTISCSGSRSNVGGNYVFWYQQVPGATPKLLIYRSNQRPSGVPDRFAGSKSGSSASLAISGLRSEDEADYYCATWDDSLSGFVFGTGTKVTVLGSRGGGGSGGGGSGGGGSLEMAEVQLVESGGGLVKPGGSLRLSCAASGFTFSDYYMSWIRQAPGKGLEWVSYISSSGSTIYYADSVKGRFTISRDNAKNSLYLQMNSLRAEDTAVYYCARGYGKAYDQWGQGTLVTVSS
notes: also called ET150-5 scFv
B6: ET150-5 mIgG1 (antibody, V domains shown)
VH: EVQLVESGGGLVKPGGSLRLSCAASGFTFSDYYMSWIRQAPGKGLEWVSYISSSGSTIYYADSVKGRFTISRDNAKNSLYLQMNSLRAEDTAVYYCARGYGKAYDQWGQGTLVTVSS
VL: QSVLTQPPSASGTPGQRVTISCSGSRSNVGGNYVFWYQQVPGATPKLLIYRSNQRPSGVPDRFAGSKSGSSASLAISGLRSEDEADYYCATWDDSLSGFVFGTGTKVTVLG
notes: also called ET150-155
B7: ET150-8 mIgG1 (antibody, V domains shown)
VH: QVQLVESGGGLVHPGGSLRLSCAASGFTFRSHSMNWVRQAPGKGLEWVSSISSDSTYTYYADSVKGRFTISRDNAKNSLYLQMNSLRAEDTAVYYCARSGGQWKYYDYWGQGTLVTVSS
VL: SSELTQDPAVSVALGQTVRITCQGDSLRSYYASWYQQKPGQAPVLVIYGKNNRPSGIPDRFSGSSSGNTASLTITGAQAEDEADYYCNSRDSSGNPPVVFGGGTKLTVLG
notes: also called ET150-158
B8: ET150-2 mIgG1 (antibody, V domains shown)
VH: QMQLVQSGAEVKKPGASVKVSCKASGYTFNRYAITWVRQAPGQGLEWMGWISAYNGNSHYAQKLQGRVTMTTDTSTGTAYMELRRLRSDDTAVYYCARMAYDSWGQGTLVTVSS
VL: QSVLTQPASVSGSPGQSLTISCTGTSNDVGAYKYVSWYQQYPGKAPKLILYDVFKRPSGVSNRFSGSKSDNTASLTISGLQAEDEADYYCFSLTSSNTYVFGTGTKVTVLG
notes: also called ET150-152
B9: ET150-18 mIgG1 (antibody, V domains shown)
VH: EVQLVESGGGLIQPGGSLRLSCAASGFTFSNYAMNWVRQAPGKGLEWVSTINGRGSSTIYADSVKGRFTISRDNSKNTLYLQMNSLRAEDTATYYCARYISRGLGDSWGQGTLVTV
VL: QSVVTQPPSMSAAPGQQVTISCSGGNSNIERNYVSWYLQLPGTAPKLVIFDNDRRPSGIPDRFSGSKSGTSATLGITGLQTGDEADYYCGTWDSSLRGWVFGGGTKLTVLG
notes: also called ET150-168
B10: ET150-157 scFv (scFv)
scFv: SYELTQPPSASGTPGQRVTISCSGSSSNIGSNYVSWYQQLPGTAPKLLIYRNNQRPSGVPDRFSGSKSGTSASLAISGLRSEDEADYYCAAWDDSLSGVVFGGGTKLTVLGSRGGGGSGGGGSGGGGSLEMAEVQLVQSGAEVKKPGSSVKVSCKASGGTFSSYAISWVRQAPGQGLEWMGGIIPIFGTAKYAQKFQGRVTITADESTSTAYMELSSLRSEDTAVYYCARSHVAWSLLDYWGQGTLVTVSS
notes: also called ET150-7 scFv
B11: ET150-159 scFv (scFv)
scFv: QSVLTQPPSASGTPGQRVTISCSGSSSNIGSNYVYWYQQLPGTAPKLLIYRNNQRPSGVPDRFSGSKSGTSASLAISGLRSEDEADYYCAAWDDSLSGWVFGGGTKLTVLGSRGGGGSGGGGSGGGGSLEMAQVQLVQSGAEVKKPGSSVKVSCKASGGTFSSYAISWVRQAPGQGLEWMGWMNPNSGNTGYAQKFQGRVTMTRNTSISTAYMELSSLRSEDTAVYYCARYQSYKGSQSDSWGQGTLVTVSS
notes: also called ET150-9 scFv

Each binder was assayed against T1, human G-protein coupled receptor family C group 5 member D (GPRC5D) (human, UniProt Q9NZD1 1-345) (assay: flow cytometry: phage clone on 3T3-GPRC5D cells (printed 3T3-ET150), anti-M13 mouse antibody, then APC-labelled anti-mouse IgG; control without phage (A04 anti-M13+ APC mIgG) median 10.9).
T1 construct: Overexpressed on 3T3 cells in the FACS assays; also called human GPRC5D; 3T3-GPRC5D
T1 sequence (Q9NZD1 whole entry): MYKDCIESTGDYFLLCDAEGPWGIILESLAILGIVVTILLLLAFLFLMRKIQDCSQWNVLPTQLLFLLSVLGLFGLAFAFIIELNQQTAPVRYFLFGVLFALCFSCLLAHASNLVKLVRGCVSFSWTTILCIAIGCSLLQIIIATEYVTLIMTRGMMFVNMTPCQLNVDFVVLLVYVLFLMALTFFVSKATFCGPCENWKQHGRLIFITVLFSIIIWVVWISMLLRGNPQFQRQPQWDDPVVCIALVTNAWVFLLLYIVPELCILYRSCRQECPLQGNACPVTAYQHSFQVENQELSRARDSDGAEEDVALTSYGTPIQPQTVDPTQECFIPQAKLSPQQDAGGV
Description: FACS Screening. […] Phage clones were incubated with 3T3-GPRC5D cell line, then with anti-M13 mouse antibody. Finally APC-labeled anti-mouse IgG 2nd antibody was added to the reaction after washing again. The binding was measured by FACS and expressed as mean fluorescence intensity (MFI). Cells incubated with M13 K07 helper phage and cells only were used as negative controls.

Median, RED2-HLin | Binder
3110 | B1
3180 | B2
3230 | B3
2400 | B4
3220 | B5

What follows are binders tested against T1, human G-protein coupled receptor family … (assay: flow cytometry (MFI, FL2) on 3T3-GPRC5D and parental 3T3 cells at 10 and 1 µg/mL, PE-labelled anti-mouse IgG secondary antibody).
Description: Each antibody (ET150-1, ET150-2, ET150-5, ET150-8, ET150-18) was incubated with 3T3 or 3T3-GPRC5D cells at 10 or 1 μg/mL, then with anti-M13 mouse antibody. Finally PE-labeled anti-mouse IgG 2nd antibody was added to the reaction. The binding was measured by FACS and expressed as mean fluorescence intensity (MFI) (FIG. 13). Cells incubated with 2nd antibody alone, ET901 mIgG1 isotype control and cells only were used as negative controls.

binding result | Binder
binds | B6
binds | B7
binds | B8
binds | B9

What follows are binders tested against T1, human G-protein coupled receptor family … (assay: FACS, scFv phage clones on 3T3 cells overexpressing GPRC5D).

binding result | Binder
binds | B10
binds | B11
